We go through three molecules from US20260242504A1 (published 2026).

The labels stand for the following.
T1: recombinant human 5T4 protein (5T4/His) (UniProt Q13641 32-355)
T1 chain: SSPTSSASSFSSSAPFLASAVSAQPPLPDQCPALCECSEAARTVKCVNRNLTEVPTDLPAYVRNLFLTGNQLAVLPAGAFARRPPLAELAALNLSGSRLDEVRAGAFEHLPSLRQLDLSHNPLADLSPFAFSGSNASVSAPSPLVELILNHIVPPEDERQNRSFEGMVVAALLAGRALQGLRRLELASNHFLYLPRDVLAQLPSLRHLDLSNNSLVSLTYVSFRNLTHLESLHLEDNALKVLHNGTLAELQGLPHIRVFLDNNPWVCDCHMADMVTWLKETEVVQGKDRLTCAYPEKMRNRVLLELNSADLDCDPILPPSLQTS

B1: 53D tribody (other)
chain 1: QVQLVQSGAEVKKPGASVKVSCKASGYSFTSYYMHWVKQSPGQGLEWIGRINPNNGVTLYNQKFKDRVTMTRDTSISTAYMELSRLRSDDTAVYYCARSTMITNYVMDYWGQGTLVTVSSASTKGPSVFPLAPSSKSTSGGTAALGCLVKDYFPEPVTVSWNSGALTSGVHTFPAVLQSSGLYSLSSVVTVPSSSLGTQTYICNVNHKPSNTKVDKKVEPKSCDKTHTGPGGGSPGQVQLVQSGAELKKPGASVKVSCKASGYTFTRYTMHWVRQAPGQCLEWMGYINPSRGYTNYNQKFKDKATLTADKSTSTAYMELRSLRSDDTAVYYCARYYDDHYSLDYWGQGTLVTVSSASGGGGSGGGGSGGGGSAGDIQLTQSPSILSASVGDRVTITCRASSSVSYMNWYQQKPGKAPKRWIYDTSKVASGVPYRFSGSGSGTEYTLTISSMQPEDFATYYCQQWSSNPLTFGCGTKVEIKSG
chain 2: not shown
B2: 53G tribody (other)
chain 1: QVQLVQSGAEVKKPGASVKVSCKASGYSFTSYYMHWVKQSPGQGLEWIGRINPNNGVTLYNQKFKDRVTMTRDTSISTAYMELSRLRSDDTAVYYCARSTMITNYVMDYWGQGTLVTVSSASTKGPSVFPLAPSSKSTSGGTAALGCLVKDYFPEPVTVSWNSGALTSGVHTFPAVLQSSGLYSLSSVVTVPSSSLGTQTYICNVNHKPSNTKVDKKVEPKSCDKTHTGPGGGSPGQVQLVQSGAELKKPGASVKVSCKASGYTFTRYTMHWVRQAPGQCLEWMGYINPSRGYTNYNQKFKDKATLTADKSTSTAYMELRSLRSDDTAVYYCARYYDDHYSLDYWGQGTLVTVSSASGGGGSGGGGSGGGGSAGDIQLTQSPSILSASVGDRVTITCRASSSVSYMNWYQQKPGKAPKRWIYDTSKVASGVPYRFSGSGSGTEYTLTISSMQPEDFATYYCQQWSSNPLTFGCGTKVEIKSG
chain 2: not shown
B3: 53P tribody (other)
chain 1: QVQLVQSGAEVKKPGASVKVSCKASGYSFTSYYMHWVKQSPGQGLEWIGRINPNNGVTLYNQKFKDRVTMTRDTSISTAYMELSRLRSDDTAVYYCARSTMITNYVMDYWGQGTLVTVSSASTKGPSVFPLAPSSKSTSGGTAALGCLVKDYFPEPVTVSWNSGALTSGVHTFPAVLQSSGLYSLSSVVTVPSSSLGTQTYICNVNHKPSNTKVDKKVEPKSCDKTHTGPGGGSPGQVQLVQSGAELKKPGASVKVSCKASGYTFTRYTMHWVRQAPGQCLEWMGYINPSRGYTNYNQKFKDKATLTADKSTSTAYMELRSLRSDDTAVYYCARYYDDHYSLDYWGQGTLVTVSSASGGGGSGGGGSGGGGSAGDIQLTQSPSILSASVGDRVTITCRASSSVSYMNWYQQKPGKAPKRWIYDTSKVASGVPYRFSGSGSGTEYTLTISSMQPEDFATYYCQQWSSNPLTFGCGTKVEIKSG
chain 2: not shown

This experiment has as its target T1, recombinant human 5T4 protein (5T4/His). Description: ELISA.
With B1, the EC50 was 0.79 nM.

As to B2, the EC50 worked out at 0.78 nM.

B3: the EC50 is 0.84 nM.

In general, EC50 refers to the concentration that produces a half-maximal response.
